These results are taken from article PMC7913776 (Nucleic Acids Research, 2021).

For this assay, the target named is T1, GST-tagged full-length BACH1 protein (mouse, UniProt P97302 1-739).
T1 sequence: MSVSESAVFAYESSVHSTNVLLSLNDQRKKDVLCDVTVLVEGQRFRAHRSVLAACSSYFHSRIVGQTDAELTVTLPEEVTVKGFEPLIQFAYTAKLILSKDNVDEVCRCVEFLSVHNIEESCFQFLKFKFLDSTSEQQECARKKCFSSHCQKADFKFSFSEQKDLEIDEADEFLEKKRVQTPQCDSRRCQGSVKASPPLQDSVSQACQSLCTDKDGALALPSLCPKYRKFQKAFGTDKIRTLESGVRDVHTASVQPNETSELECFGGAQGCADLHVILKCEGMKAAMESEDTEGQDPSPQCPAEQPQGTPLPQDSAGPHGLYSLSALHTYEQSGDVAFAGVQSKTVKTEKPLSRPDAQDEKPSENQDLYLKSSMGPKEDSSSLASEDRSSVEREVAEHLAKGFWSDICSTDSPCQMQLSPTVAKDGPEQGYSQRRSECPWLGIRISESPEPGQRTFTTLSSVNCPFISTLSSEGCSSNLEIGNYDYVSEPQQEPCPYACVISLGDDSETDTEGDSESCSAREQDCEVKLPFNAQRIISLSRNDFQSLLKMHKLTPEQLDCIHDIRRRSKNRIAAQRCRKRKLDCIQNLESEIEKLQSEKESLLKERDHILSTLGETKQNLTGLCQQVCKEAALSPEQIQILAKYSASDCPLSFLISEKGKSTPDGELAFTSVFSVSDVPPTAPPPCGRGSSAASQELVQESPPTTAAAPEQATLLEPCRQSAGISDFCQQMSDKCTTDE
Briefly: pull-down.

B1: HIS-tagged NANOG (natural protein)
chain: MSVGLPGPHSLPSSEEASNSGNASSMPAVFHPENYSCLQGSATEMLCTEAASPRPSSEDLPLQGSPDSSTSPKQKLSSPEADKGPEEEENKVLARKQKMRTVFSQAQLCALKDRFQKQKYLSLQQMQELSSILNLSYKQVKTWFQNQRMKCKRWQKNQWLKTSNGLIQKGSAPVEYPSIHCSYPQGYLVNASGSLSMWGSQTWTNPTWSSQTWTNPTWNNQTWTNPTWSSQAWTAQSWNGQPWNAAPLHNFGEDFLQPYVQLQQNFSASDLEVNLEATRESHAHFSTPQALELFLNYSVTPPGEI
Take B1: the binding result is given as “binds”.
